Results on 27 molecules are retold here after patent publication US20090208538A1 (ROCKEFELLER UNIVERSITY, published 2009).

Test [1] concerns the target T1, HLA-A*0201 (human).
T1 construct: also called HLA-A2.1; HLA A2.1
The experiment in a line: iTopia affinity.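 Note: peptide affinity for plate-bound HLA-A2 molecules (iTopia system), with ED50 derived from an eight-point serial peptide dilution series run under binding assay conditions.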

Test [2] concerns the target T1, HLA-A*0201. As to the kind of experiment: iTopia off-rate.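 Note: Half-life of peptide complexes with plate-bound HLA-A2, peptides loaded 18 h at 21 C, washed, then held at 37 C over several time points.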
Test [3] addresses T1, HLA-A*0201. As to the kind of experiment: iTopia binding.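 Note: each peptide tested for binding to HLA-A2 molecules immobilized on plates, using a commercial screening kit run per its supplied protocol and reagents.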
Test [4] concerns the target T1, HLA-A*0201. As to the kind of experiment: iTopia net score.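 Note: combined score from peptide binding, ED₅₀ and half-life of peptide complexes with plate-bound HLA-A2 molecules, computed by a proprietary formula in iTopia software.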

B1: cdr2 405-413 LASVNPEPV (peptide)
peptide: LASVNPEPV
In the test with HLA-A*0201 [1], B1 yielded an ED50 of 4 µM. This molecule displayed a t1/2 with HLA-A*0201 [2] of 1.9. Besides, the “binding vs positive control” value with HLA-A*0201 [3] is over 30%. Further, in the test with HLA-A*0201 [4], the iScore is 0.244.

B2: cdr2 217-225 VTMEEEYGL (peptide)
peptide: VTMEEEYGL
The molecule B2 gave an ED50 with HLA-A*0201 [1] of 2 µM. For the same molecule, in the test with HLA-A*0201 [2], the t1/2 stood at 6.5. Besides, the “binding vs positive control” value in the test with HLA-A*0201 [3] was over 30%. Besides, the iScore with HLA-A*0201 [4] came out at 0.528.

B3: cdr2 313-221 TILSSLAGS (peptide)
peptide: TILSSLAGS
notes: Position printed as 313-221
The molecule B3 had an ED50 with HLA-A*0201 [1] of 2 µM. Besides, the t1/2 in the test with HLA-A*0201 [2] came out at 1.1. The “binding vs positive control” value with HLA-A*0201 [3] is over 30%. In the test with HLA-A*0201 [4], this molecule registered an iScore of 0.238.

B4: cdr2 289-297 SLLEEMFLT (peptide)
peptide: SLLEEMFLT
On to B4, for which, in the test with HLA-A*0201 [1], the ED50 was found to be 6 µM. The t1/2 with HLA-A*0201 [2] was 13.9. Further, the “binding vs positive control” value with HLA-A*0201 [3] was over 30%. Moreover, in the test with HLA-A*0201 [4], the iScore stood at 0.803.

B5: cdr2 121-129 CLQTNIDHL (peptide)
peptide: CLQTNIDHL
In the test with HLA-A*0201 [1], B5 displayed an ED50 of 20 µM. In the test with HLA-A*0201 [2], the t1/2 was determined as 2.4. In addition, the “binding vs positive control” value with HLA-A*0201 [3] was over 30%. In the test with HLA-A*0201 [4], this molecule registered an iScore of 0.176.

B6: cdr2 274-282 LVPDSLYVP (peptide)
peptide: LVPDSLYVP
Turning to B6, the ED50 in the test with HLA-A*0201 [1] amounted to 10 µM. This molecule also yielded a t1/2 in the test with HLA-A*0201 [2] of 2.4. For the same molecule, in the test with HLA-A*0201 [3], the “binding vs positive control” value was over 30%. In the test with HLA-A*0201 [4], this molecule registered an iScore of 0.154.

B7: cdr2 131-139 SQVEELKSS (peptide)
peptide: SQVEELKSS
Molecule B7 returned an ED50 with HLA-A*0201 [1] of 11 µM. For the same molecule, in the test with HLA-A*0201 [2], the t1/2 stood at 2.42. The “binding vs positive control” value with HLA-A*0201 [3] is over 30%. The molecule also yielded an iScore in the test with HLA-A*0201 [4] of 0.154.

B8: cdr2 400-408 ASGWELASV (peptide)
peptide: ASGWELASV
Take B8: in the test with HLA-A*0201 [1], the ED50 stood at 1 µM. Also, the t1/2 with HLA-A*0201 [2] was found to be 0.5. Also, in the test with HLA-A*0201 [3], the “binding vs positive control” value was over 30%. The same molecule showed an iScore with HLA-A*0201 [4] of 0.187.

B9: cdr2 29-37 QLAAELGKT (peptide)
peptide: QLAAELGKT
In turn, B9 came in with an ED50 with HLA-A*0201 [1] of 20 µM. For the same molecule, in the test with HLA-A*0201 [2], the t1/2 amounted to 1.4. Besides, in the test with HLA-A*0201 [3], the “binding vs positive control” value is over 30%. The same molecule showed an iScore with HLA-A*0201 [4] of 0.15.

B10: cdr2 391-399 GVNAQSEPV (peptide)
peptide: GVNAQSEPV
For the molecule B10, the ED50 in the test with HLA-A*0201 [1] was 10 µM. Besides, in the test with HLA-A*0201 [2], the t1/2 worked out at 6.4. The “binding vs positive control” value with HLA-A*0201 [3] was over 30%. The same molecule displayed an iScore with HLA-A*0201 [4] of 0.292.

B11: cdr2 171-179 FVYDHVFAE (peptide)
peptide: FVYDHVFAE
In the test with HLA-A*0201 [1], B11 returned an ED50 of 10 µM. The molecule further registered a t1/2 in the test with HLA-A*0201 [2] of 5.5. For the same molecule, the “binding vs positive control” value with HLA-A*0201 [3] is over 30%. The molecule further had an iScore with HLA-A*0201 [4] of 0.282.

B12: cdr2 273-281 KLVPDSLYV (peptide)
peptide: KLVPDSLYV
As to B12, in the test with HLA-A*0201 [1], the ED50 was found to be 3 µM. Besides, the t1/2 with HLA-A*0201 [2] was 6.1. The “binding vs positive control” value in the test with HLA-A*0201 [3] was over 30%. Besides, the iScore with HLA-A*0201 [4] came out at 0.499.

B13: cdr2 341-349 RGISLLHEV (peptide)
peptide: RGISLLHEV
B13 yielded an ED50 with HLA-A*0201 [1] of 1 µM. Moreover, in the test with HLA-A*0201 [2], the t1/2 amounted to 7. Further, in the test with HLA-A*0201 [3], the “binding vs positive control” value is over 30%. In addition, in the test with HLA-A*0201 [4], the iScore amounted to 0.752.

B14: cdr2 128-136 HLQSQVEEL (peptide)
peptide: HLQSQVEEL
As for B14, the ED50 with HLA-A*0201 [1] came to 10 µM. In the test with HLA-A*0201 [2], the t1/2 was found to be 7.7. Also, the “binding vs positive control” value in the test with HLA-A*0201 [3] was over 30%. In the test with HLA-A*0201 [4], this molecule yielded an iScore of 0.323.

B15: cdr2 372-380 DSLSHKAVQ (peptide)
peptide: DSLSHKAVQ
In turn, B15 showed an ED50 with HLA-A*0201 [1] of 9 µM. For the same molecule, the t1/2 with HLA-A*0201 [2] turned out to be 6.3. In addition, the “binding vs positive control” value in the test with HLA-A*0201 [3] was over 30%. In the test with HLA-A*0201 [4], the iScore is 0.262.

B16: cdr2 288-296 QSLLEEMFL (peptide)
peptide: QSLLEEMFL
The molecule B16 displayed an ED50 in the test with HLA-A*0201 [1] of 30 µM. This molecule had a t1/2 in the test with HLA-A*0201 [2] of 5.44. Moreover, the “binding vs positive control” value with HLA-A*0201 [3] is over 30%. This molecule also yielded an iScore with HLA-A*0201 [4] of 0.178.

B17: cdr2 125-133 NIDHLQSQV (peptide)
peptide: NIDHLQSQV
For B17, the ED50 in the test with HLA-A*0201 [1] stood at 6 µM. Moreover, the t1/2 with HLA-A*0201 [2] was found to be 1.3. The “binding vs positive control” value with HLA-A*0201 [3] is over 30%. Besides, the iScore with HLA-A*0201 [4] worked out at 0.166.

B18: cdr2 237-245 LGATGAYRA (peptide)
peptide: LGATGAYRA
Molecule B18 yielded an ED50 in the test with HLA-A*0201 [1] of 10 µM. In the test with HLA-A*0201 [2], this molecule showed a t1/2 of 1.2. For the same molecule, in the test with HLA-A*0201 [3], the “binding vs positive control” value is over 30%. The iScore with HLA-A*0201 [4] stood at 0.13.

B19: cdr2 384-392 AAAKDLTGV (peptide)
peptide: AAAKDLTGV
In the case of B19, in the test with HLA-A*0201 [1], the ED50 was 3 µM. In the test with HLA-A*0201 [2], this molecule gave a t1/2 of 6.5. Further, the “binding vs positive control” value in the test with HLA-A*0201 [3] is over 30%. Besides, the iScore with HLA-A*0201 [4] was 0.469.

B20: cdr2 82-90 KVYEQLDVT (peptide)
peptide: KVYEQLDVT
On to B20, for which the ED50 with HLA-A*0201 [1] came out at 8 µM. In the test with HLA-A*0201 [2], this molecule showed a t1/2 of 1.3. In the test with HLA-A*0201 [3], the “binding vs positive control” value was over 30%. In the test with HLA-A*0201 [4], this molecule showed an iScore of 0.139.

B21: cdr2 293-301 EMFLTVPES (peptide)
peptide: EMFLTVPES
The molecule B21 had an ED50 with HLA-A*0201 [1] of 17 µM. In addition, the t1/2 in the test with HLA-A*0201 [2] is 1.38. In addition, the “binding vs positive control” value with HLA-A*0201 [3] was over 30%. This molecule also gave an iScore with HLA-A*0201 [4] of 0.15.

B22: cdr2 136-144 LKSSGQGRR (peptide)
peptide: LKSSGQGRR
The molecule B22 gave an ED50 in the test with HLA-A*0201 [1] of 16 µM. The t1/2 with HLA-A*0201 [2] came out at 2.38. Further, in the test with HLA-A*0201 [3], the “binding vs positive control” value is over 30%. In the test with HLA-A*0201 [4], this molecule returned an iScore of 0.176.

B23: cdr2 218-226 TMEEEYGLV (peptide)
peptide: TMEEEYGLV
Molecule B23 showed an ED50 with HLA-A*0201 [1] of 6.3 µM. Also, the t1/2 with HLA-A*0201 [2] is 1.27. Besides, in the test with HLA-A*0201 [3], the “binding vs positive control” value is over 30%. Further, the iScore with HLA-A*0201 [4] was found to be 0.166.

B24: cdr2 204-212 MLQAQLSLE (peptide)
peptide: MLQAQLSLE
In the test with HLA-A*0201 [1], B24 came in with an ED50 of 5 µM. Further, the t1/2 with HLA-A*0201 [2] was 5.1. Moreover, the “binding vs positive control” value in the test with HLA-A*0201 [3] is over 30%. The molecule also displayed an iScore with HLA-A*0201 [4] of 0.235.

B25: cdr2 373-381 SLSHKAVQT (peptide)
peptide: SLSHKAVQT
As to B25, the ED50 in the test with HLA-A*0201 [1] turned out to be 4 µM. Further, the t1/2 in the test with HLA-A*0201 [2] was 0.8. The “binding vs positive control” value with HLA-A*0201 [3] is over 30%. The same molecule had an iScore in the test with HLA-A*0201 [4] of 0.129.

B26: cdr2 113-121 LSLTETIEC (peptide)
peptide: LSLTETIEC
As for B26, in the test with HLA-A*0201 [1], the ED50 turned out to be 0.95 µM. In the test with HLA-A*0201 [2], this molecule came in with a t1/2 of 0.51. Besides, in the test with HLA-A*0201 [3], the “binding vs positive control” value was over 30%. Moreover, in the test with HLA-A*0201 [4], the iScore came out at 0.187.

B27: cdr2 206-214 QAQLSLERQ (peptide)
peptide: QAQLSLERQ
Turning to B27, in the test with HLA-A*0201 [1], the ED50 came to 8.1 µM. For the same molecule, in the test with HLA-A*0201 [2], the t1/2 came to 3.42. In addition, in the test with HLA-A*0201 [3], the “binding vs positive control” value was over 30%. In the test with HLA-A*0201 [4], this molecule displayed an iScore of 0.174.
